Assay results as given in patent US20120165204A1 (UNIVERSITY OF NORTH CAROLINA AT CHAPEL HILL, published 2012).

Molecular target: T1, 546-4 T17N (LOV2 carries non-covalent FMN; the Rac1 C-terminal CAAX box may be prenylated and trimmed in cells)
T1 construct: only the lane label names it
Assay: pull-down (CoIP) with FLAG-tagged PAK1 co-expressed in HEK 293 cells, FLAG/M2-agarose, in the dark; Western blot
Experimental: The cells were lysed in 50 mM Tris pH 7.5, 150 mM NaCl, and 1% Triton X-100 (lysis buffer) with addition of EDTA-free protease inhibitor cocktail (Roche). After brief centrifugation, the supernatants were incubated with FLAG/M2-agarose (Sigma) followed by washes with lysis buffer, and elution with lysis buffer containing 200 μg/ml 3× FLAG peptide (Sigma). All procedures were done at 4° C. under red light, facilitated using Handee spin columns (Pierce).

B1: FLAG-tagged PAK1 (enzyme, UniProt Q13153 1-545, looked up)
chain: MSNNGLDIQDKPPAPPMRNTSTMIGAGSKDAGTLNHGSKPLPPNPEEKKKKDRFYRSILPGDKTNKKKEKERPEISLPSDFEHTIHVGFDAVTGEFTGMPEQWARLLQTSNITKSEQKKNPQAVLDVLEFYNSKKTSNSQKYMSFTDKSAEDYNSSNALNVKAVSETPAVPPVSEDEDDDDDDATPPPVIAPRPEHTKSVYTRSVIEPLPVTPTRDVATSPISPTENNTTPPDALTRNTEKQKKKPKMSDEEILEKLRSIVSVGDPKKKYTRFEKIGQGASGTVYTAMDVATGQEVAIKQMNLQQQPKKELIINEILVMRENKNPNIVNYLDSYLVGDELWVVMEYLAGGSLTDVVTETCMDEGQIAAVCRECLQALEFLHSNQVIHRDIKSDNILLGMDGSVKLTDFGFCAQITPEQSKRSTMVGTPYWMAPEVVTRKAYGPKVDIWSLGIMAIEMIEGEPPYLNENPLRALYLIATNGTPELQNPEKLSAIFRDFLNRCLEMDVEKRGSAKELLQHQFLKIAKPLSSLTPLIAAAKEATKNNH
notes: Bait of the pull-down assays (FLAG/M2-agarose); not shown: FLAG tag
binding result: no binding
